From PMC5422877 come the findings set out here.

Data set [1] deals with MqsA-CHis;MqsR (Pseudomonas putida KT2440;Pseudomonas putida KT2440) (UniProt Q88F94+Q88F93). Kind of data set: EMSA. To be noted: 10 mM HEPES pH 7.3, 20 mM KCl, 1 mM MgCl2, 5% glycerol, NP-40, poly dI-dC, 0.05 pmol biotin probe in 20 ul, 25 C, 1 h. Background: A gel shift assay detects complexes by their altered migration in electrophoresis.
For data set [2], the target named is T1, MqsA-CHis (Pseudomonas putida KT2440) (UniProt Q88F94).
T1 sequence: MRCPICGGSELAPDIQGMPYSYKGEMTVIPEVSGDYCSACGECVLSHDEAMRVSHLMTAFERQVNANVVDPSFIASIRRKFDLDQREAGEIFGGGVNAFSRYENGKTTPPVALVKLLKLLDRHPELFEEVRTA
Kind of data set: EMSA. To be noted: 10 mM HEPES pH 7.3, 20 mM KCl, 1 mM MgCl2, 5% glycerol, NP-40, poly dI-dC, 0.05 pmol biotin probe in 20 ul, 25 C, 1 h.

With “CTATTAGCCAAATTTAACCTGGAAGGTTAATTTCTCATGGAAAAGAGAATGCCTCATTGCCCGCTGGAGCGGGTAAAAGCCCTGGCTGCGGCAAGGCGAATCCGCCCTACGGGTGCTGCATTGAAAGGCG (double strand) [PmqsRA]”, the figures for the binding entry in data set [1] and in data set [2] were “no binding” and “binds”, respectively.
